According to paper doi:10.1101/2025.11.18.689162 (bioRxiv, 2025):

Target: cardiac troponin I (TPNI), mouse, endogenous (mouse (endogenous in heart), UniProt P48787 1-211)
Assay: cell-based or functional assay

cardiac troponin I (TPNI), mouse, endogenous, sequence (P48787 whole entry): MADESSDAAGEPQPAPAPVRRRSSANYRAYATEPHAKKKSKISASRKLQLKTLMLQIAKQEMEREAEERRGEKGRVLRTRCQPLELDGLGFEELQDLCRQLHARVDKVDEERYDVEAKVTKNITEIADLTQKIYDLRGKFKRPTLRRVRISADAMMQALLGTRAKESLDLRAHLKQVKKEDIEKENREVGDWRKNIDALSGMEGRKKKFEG

B1: PDE4D9, mouse, endogenous (enzyme, mouse (endogenous in heart), UniProt Q01063-2 1-678, looked up)
chain: MSIIMKPRSRSTSSLRTTEAVCFDVDNGTSAGRSPLDPMTSPGSGLILQANFVHSQRRESFLYRSDSDYDLSPKSMSRNSSIASDIHGDDLIVTPFAQVLASLRTVRNNFAALTNLQDRAPSKRSPMCNQPSINKATITEEAYQKLASETLEELDWCLDQLETLQTRHSVSEMASNKFKRMLNRELTHLSEMSRSGNQVSEYISNTFLDKQHEVEIPSPTQKEKEKKKRPMSQISGVKKLMHSSSLTNSCIPRFGVKTEQEDVLAKELEDVNKWGLHVFRIAELSGNRPLTVIMHTIFQERDLLKTFKIPVDTLITYLMTLEDHYHADVAYHNNIHAADVVQSTHVLLSTPALEAVFTDLEILAAIFASAIHDVDHPGVSNQFLINTNSELALMYNDSSVLENHHLAVGFKLLQEENCDIFQNLTKKQRQSLRKMVIDIVLATDMSKHMNLLADLKTMVETKKVTSSGVLLLDNYSDRIQVLQNMVHCADLSNPTKPLQLYRQWTDRIMEEFFRQGDRERERGMEISPMCDKHNASVEKSQVGFIDYIVHPLWETWADLVHPDAQDILDTLEDNREWYQSTIPQSPSPAPDDQEEGRQGQTEKFQFELTLEEDCESDTEKDSGSQVEEDTSCSDSKTLCTQDSESTEIPLDEQVEEEAVAEEESQPETCVPDDCCPDT
- TPNI phosphorylation in TAC mice treated with scAAV9-P33 against scAAV9-SC: 2.8 fold
